Earlier results in PMC6699087.

Target: Hsp90 (Homo sapiens) (UniProt P08238)
Chain of UniProt P08238 (P08238 2-724): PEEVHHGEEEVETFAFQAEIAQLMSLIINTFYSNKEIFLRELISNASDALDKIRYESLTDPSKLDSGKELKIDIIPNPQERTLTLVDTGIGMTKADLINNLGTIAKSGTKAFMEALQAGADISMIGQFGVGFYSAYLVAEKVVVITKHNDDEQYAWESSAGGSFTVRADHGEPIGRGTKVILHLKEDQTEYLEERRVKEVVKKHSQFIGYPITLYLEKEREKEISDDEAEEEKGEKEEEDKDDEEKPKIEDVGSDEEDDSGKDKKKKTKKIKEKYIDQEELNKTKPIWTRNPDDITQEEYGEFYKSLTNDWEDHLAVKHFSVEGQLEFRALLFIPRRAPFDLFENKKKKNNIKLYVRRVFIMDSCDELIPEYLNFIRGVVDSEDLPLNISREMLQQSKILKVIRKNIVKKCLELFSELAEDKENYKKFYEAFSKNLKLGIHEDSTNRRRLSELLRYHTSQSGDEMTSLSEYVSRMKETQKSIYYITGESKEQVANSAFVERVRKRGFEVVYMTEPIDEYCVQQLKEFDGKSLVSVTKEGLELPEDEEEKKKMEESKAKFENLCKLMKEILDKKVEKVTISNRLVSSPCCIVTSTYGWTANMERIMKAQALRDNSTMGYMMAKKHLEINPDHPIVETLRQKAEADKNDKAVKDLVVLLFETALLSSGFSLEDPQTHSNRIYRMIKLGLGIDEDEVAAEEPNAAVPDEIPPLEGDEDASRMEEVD

Aha1 (from UniProt O95433)
Kd: 500 nM
